As a reminder, the Kd is the concentration at which binding is half-saturated.

Consider one molecule from publication PMC5821868, “Human Semaphorin-4A drives Th2 responses by binding to receptor ILT-4” (Nature Communications, 2018).

This test has as its target T1, recombinant SEMA4A-Fc (Sino Bio. Inc) (human, UniProt Q9H3S1 33-683).
T1 construct: Semaphorin-4A (SEMA4A), human; Used only in the SPR experiment, coated on the CM5 chip; Probably the extracellular domain (surmise); no catalogue number is printed; also called hSEMA4A; source: bought: Sino Bio; Inc
T1 sequence (looked up): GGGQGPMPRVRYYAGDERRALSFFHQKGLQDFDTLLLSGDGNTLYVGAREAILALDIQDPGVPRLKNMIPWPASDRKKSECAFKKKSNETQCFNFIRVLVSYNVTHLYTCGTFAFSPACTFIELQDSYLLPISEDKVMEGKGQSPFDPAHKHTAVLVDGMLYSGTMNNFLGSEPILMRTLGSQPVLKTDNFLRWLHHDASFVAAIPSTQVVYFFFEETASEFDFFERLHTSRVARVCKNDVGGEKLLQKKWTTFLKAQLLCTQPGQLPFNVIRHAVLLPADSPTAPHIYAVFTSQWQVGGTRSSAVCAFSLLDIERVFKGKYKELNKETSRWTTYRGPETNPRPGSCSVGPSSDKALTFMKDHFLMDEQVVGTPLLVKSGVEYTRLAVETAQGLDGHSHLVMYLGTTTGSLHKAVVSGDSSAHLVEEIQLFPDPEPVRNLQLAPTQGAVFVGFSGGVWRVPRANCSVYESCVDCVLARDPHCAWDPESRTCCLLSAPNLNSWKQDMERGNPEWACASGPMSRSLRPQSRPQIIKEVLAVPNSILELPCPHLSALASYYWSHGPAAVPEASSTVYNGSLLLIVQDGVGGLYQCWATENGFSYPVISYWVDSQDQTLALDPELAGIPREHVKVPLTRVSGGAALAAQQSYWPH
The experiment in a line: SPR; SEMA4A-Fc (Sino Bio. Inc, 25 ug/ml) coated on a series S CM5 chip; ILT-4-Fc flowed at 10 to 0.625 uM in twofold dilutions; 25 °C; BIAcore T100. The settings on record: both partners purified. (In SPR one partner is held on a chip, and binding of the other changes the refractive index at the surface.)

B1: recombinant ILT-4-Fc fusion protein (R&D Systems) (Fc fusion, human, UniProt Q8N423 22-460, looked up)
chain: QTGTIPKPTLWAEPDSVITQGSPVTLSCQGSLEAQEYRLYREKKSASWITRIRPELVKNGQFHIPSITWEHTGRYGCQYYSRARWSELSDPLVLVMTGAYPKPTLSAQPSPVVTSGGRVTLQCESQVAFGGFILCKEGEDEHPQCLNSQPHARGSSRAIFSVGPVSPNRRWSHRCYGYDLNSPYVWSSPSDLLELLVPGVSKKPSLSVQPGPVMAPGESLTLQCVSDVGYDRFVLYKEGERDLRQLPGRQPQAGLSQANFTLGPVSRSYGGQYRCYGAHNLSSECSAPSDPLDILITGQIRGTPFISVQPGPTVASGENVTLLCQSWRQFHTFLLTKAGAADAPLRLRSIHEYPKYQAEFPMSPVTSAHAGTYRCYGSLNSDPYLLSHPSEPLELVVSGPSMGSSPPPTGPISTPGPEDQPLTPTGSDPQSGLGRHLGV
notes: Immunoglobulin-like transcript 4 (ILT-4, LILRB2), human; APC-labelled with the Zenon labeling kit for flow cytometry; Probably the extracellular domain of ILT-4 (surmise); no catalogue number is printed; also called APC-ILT-4-Fc; hILT-4; source: bought: R&D Systems
Consider B1, for which the Kd was found to be 3.8 µM.
